The text below walks through data of US20210371537A1 (MERRIMACK PHARMACEUTICALS, published 2021).

Experiment [1] has as its target his-tagged mouse TNFR2 (mouse) (UniProt P25119). Nature of the experiment: blocking ELISA: His-tagged mouse TNFR2 coated, antibody titrated, then recombinant mouse TNF-alpha added and detected; OD450 normalized. (An ELISA detects its analyte on a solid surface through an enzyme-linked reagent.)
Experiment [2] deals with T1, human TNFR2-His (human, UniProt P20333 23-257).
T1 construct: not shown: His tag
T1 sequence: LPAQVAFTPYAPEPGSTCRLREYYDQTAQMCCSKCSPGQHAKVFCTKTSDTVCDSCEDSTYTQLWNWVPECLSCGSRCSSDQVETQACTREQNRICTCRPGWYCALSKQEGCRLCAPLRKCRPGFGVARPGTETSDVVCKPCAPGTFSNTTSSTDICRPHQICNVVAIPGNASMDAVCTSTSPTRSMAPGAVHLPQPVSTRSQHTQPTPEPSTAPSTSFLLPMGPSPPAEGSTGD
Nature of the experiment: BLI, antibody on anti-Human Fc Capture (AHC) biosensors, human TNFR2-His in solution. As to the method:
Binding affinities for human TNFR2 of the affinity-matured anti-human TNFR2 antibodies generated in Example 30 were measured by bio-layer interferometry (BLI). Briefly, a BLI kinetic assay was performed using anti-Human Fc Capture (AHC) biosensors (ForteBio) under the following conditions: (a) loading of antibody (4 μg/mL) for 60 sec, (b) baseline for 60 sec, (d) association with human TNFR2-His ([…]) for 300 sec, and (e) dissociation for 300 sec.
A general note: Biolayer interferometry detects binding as a change in optical thickness at a sensor tip.

Experiment [3] deals with T2, human TNFR2 on GloResponse NF-kB-RE-luc2p HEK293 reporter cells (human, UniProt P20333 23-461).
T2 sequence: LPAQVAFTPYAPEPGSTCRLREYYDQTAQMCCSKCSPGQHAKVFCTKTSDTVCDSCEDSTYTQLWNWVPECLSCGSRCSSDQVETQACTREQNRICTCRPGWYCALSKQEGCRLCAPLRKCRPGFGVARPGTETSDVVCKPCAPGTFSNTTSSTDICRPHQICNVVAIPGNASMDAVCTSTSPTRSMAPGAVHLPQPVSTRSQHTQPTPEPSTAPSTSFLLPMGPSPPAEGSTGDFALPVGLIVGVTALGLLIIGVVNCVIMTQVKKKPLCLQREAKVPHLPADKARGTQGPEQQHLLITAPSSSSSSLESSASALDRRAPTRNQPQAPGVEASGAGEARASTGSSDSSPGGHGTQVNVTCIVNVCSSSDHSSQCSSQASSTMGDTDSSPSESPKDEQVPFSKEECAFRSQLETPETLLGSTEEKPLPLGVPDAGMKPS
The experiment can be described thus: cell-based or functional assay.

Chain of his-tagged mouse TNFR2 (mouse) (P25119 23-258 limits assumed): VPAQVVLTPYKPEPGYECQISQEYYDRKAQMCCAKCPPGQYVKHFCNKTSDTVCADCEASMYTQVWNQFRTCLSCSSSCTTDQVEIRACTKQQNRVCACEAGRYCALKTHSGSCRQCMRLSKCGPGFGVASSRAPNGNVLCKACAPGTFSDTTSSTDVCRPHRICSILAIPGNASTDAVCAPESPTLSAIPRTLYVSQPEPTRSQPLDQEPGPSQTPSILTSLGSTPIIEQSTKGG

As to 54.7 (Bioxcell) (antibody), in experiment [1], the IC50 (read off the curve) turned out to be 2 nM.

B1: ABV2.7 (antibody, human IgG1, kappa, V domains shown)
VH: QVQLVQSGSELKKPGASVKVSCKASGYTFTTFGMSWVRQAPGQGLEWMGWINTYSGVPTYAQGFTGRFVFSLDTSVSTAYLQISSLKAEDTAVYFCARRSNFAYWGQGTLVTVSS
VL: DIVLTQSPDSLAVSLGERATINCRASESLTASGNSFMHWYQQKPGQPPKLLIYRASNLESGVPDRFSGSGSRTDFTLTISSLQAEDVAVYYCQQSRHVNWTFGGGTKVEIKR
As usually defined, the Kd is the concentration at which binding is half-saturated. Read a low Kd as a tighter complex. In experiment [2], B1 returned a Kd of 0.3 nM. Further, in experiment [3], the “EC50 in stimulating NF-kB activity” value is 10.8 µg/mL.

B2: ABV2.13 (antibody, human IgG1, kappa, V domains shown)
VH: QVQLVQSGSELKKPGASVKVSCKASGYTFTTFGMSWVRQAPGQGLEWMGWINTYSGVPHYAQGFTGRFVFSLDTSVSTAYLQISSLKAEDTAVYFCARRSNFAYWGQGTLVTVSS
VL: DIVLTQSPDSLAVSLGERATINCRASQTVDSSGNSFMHWYQQKPGQPPKLLIYLGNRLESGVPDRFSGSGSRTDFTLTISSLQAEDVAVYYCQQSNEDPWTFGGGTKVEIKR
For B2, the Kd in experiment [2] came to 1.59 nM. The “EC50 in stimulating NF-kB activity” value in experiment [3] turned out to be 4.1 µg/mL.

B3: ABV2.1 (ABV2 hum #2 HD3) (antibody, V domains shown)
VH: QVQLVQSGSELKKPGASVKVSCKASGYTFTTFGMSWVRQAPGQGLEWMGWINTYSGVPTYAQGFTGRFVFSLDTSVSTAYLQISSLKAEDTAVYFCARRSNFAYWGQGTLVTVSS
VL: DIVLTQSPDSLAVSLGERATINCRASESVDSSGNSFMHWYQQKPGQPPKLLIYRASNLESGVPDRFSGSGSRTDFTLTISSLQAEDVAVYYCQQSNEDPWTFGGGTKVEIK
notes: humanized ABV2; also called parental antibody
As to B3, binding in experiment [2] was put at a Kd of 4.42 nM. Also, the “EC50 of induced NF-kB activity” value in experiment [3] was 1.6 µg/mL.

B4: ABV2.15 (antibody, human IgG1, kappa, V domains shown)
VH: QVQLVQSGSELKKPGASVKVSCKASGYTFTTFGMSWVRQAPGQGLEWMGWINTYSGVPHYAQGFTGRFVFSLDTSVSTAYLQISSLKAEDTAVYFCARRSNFAYWGQGTLVTVSS
VL: DIVLTQSPDSLAVSLGERATINCRASESLTASGNSFMHWYQQKPGQPPKLLIYRASNLESGVPDRFSGSGSRTDFTLTISSLQAEDVAVYYCQQSRHVNWTFGGGTKVEIKR
In the case of B4, in experiment [2], binding was put at a Kd of 0.158 nM. Moreover, in experiment [3], the “EC50 in stimulating NF-kB activity” value was found to be 9.3 µg/mL and the “EC50 of induced NF-kB activity” value came out at 5.3 µg/mL.

B5: ABV2 chimera (ABV2c) (antibody, human IgG1, kappa, V domains shown)
VH: QIQLVQSGPELKKPGETVKISCKASGYTFTTFGMSWVKQAPGKGLKWMGWINTYSGVPTYADDFKGRFAFSLETSASTAYLQINNLKNEDTATYFCARRSNFAYWGQGTLVTVSA
VL: DIVLTQSPASLAVSLGQRATISCRASESVDSSGNSFMHWYQQKAGQSFKLLIYRASNLESGIPARFSGSGSRTDFTLTINPVEADDVATYYCQQSNEDPWTFGGGTKLEIKR
notes: VH and VL of mouse ABV2 fused with human IgG1 and human kappa constant regions; also called ABVc; chimeric anti-human TNFR2 antibody
B5: binding in experiment [2] was put at a Kd of 0.689 nM. The “EC50 in stimulating NF-kB activity” value in experiment [3] was found to be 8.6 µg/mL.
